From a protein production outcome set (Wang et al. 2014)

Experiment: label from the status in PepcDB records

Sequence	protein production
MSLVNLTINGKHVSAPSGTSILDAAKLINIKIHNLCHLHMNEIDKLDTCASCRVCMVETERGLVPACGTVIKEGMKVQTNSAKALNARRTIVELLLSDHPQDCFVCEKNGDCELQTIAADLGVRKIRYQGSKSFAGKDTSTKSLVKDHSKCILCRRCETVCNDIQTVGALSGVNRGFNTLVSTFFNSDMVETECTFCGQCISVCPTGALTEVDNVPKLWDVLNKKEKTIVVQVAPAVRVAIGEEFGLEPGSISTGKMVAALKALGFEHVFDTNFGADFTIMEEATEFIERIQKGENLPILTSCCPAWVNFLEHNYPDKLNLASSCKSPQGMFGSIAKNYYAPKILGINPEELYVVSVMPCVAKKYEASREELSESGILDVDLSITTRELAKMIKEAAIDLPNLQDQDFDNPLGKSTGAASIFGASGGVLEAALRTSYEKITNKTLDNVNFTNVRGLKGIREASIDVDGTTVNVCIVNTLKNARKIMDKVRSGECKYHIIEVMACPGGCVGGAGQPYHHGNTEIVDRRANALYEIDRNKAIRKSHENPDLQAIYKDFFGEPNSDVAHKYLHTHYFDKSCVYGECPQECACEEAK	failed
MKSYTKHTHTNRLASESSPYLLQHAHNPVEWFPWGEEALQKAKAEDKPILVSIGYSACHWCHVMEHECFEKEEVAAVMNDLFINIKIDREERPDLDQIYMDAVSAMGLRGGWPLNVFLTPDAKPFYGGTYFPQDHWLNLLGQISNAYLNHREDILKSAESFTESLNQSDVF	not failed
MASSTRSTRSTPARGKSKGASGNVTPWLWMAFALLVVMIDQFFKVVITRSFQYGESRPITSFFNLVLVYNKGAAFSFLADAGGWQRWFFTLLGVVVGAFIIWLLYRHTGQKLFCLAVSLILGGAVGNVVDRIIHGHVIDFLDFHLRNTHFPAFNVADCAITLGAILLIVDELRRVRRH	failed
MMSNLIILPMLLPFVCALILVFTKNKNRISKILSITTMIVNTMISIALLIYVVNHKPITLDFGGWKAPFGIQFLGDSLSLLMVSVSSFVVTLIMAYGFGRGEKRVNRFHLPTFILLLTVGVIGSFLTSDLFNLYVMFEIMLLASFVLVTLGQSVEQLRAAIVYVVLNILGSWLLLLGIGMLYKTVGTLNFSHLAMRLNHMENNQTITMISLVFLVAFSSKAALVIFMWLPKAYAVLNTELAALFAALMTKVGAYALIRFFTLLFDHHPSVTHTLLVFMACITMIIGAFGVIAYKDIKKIAAYQVILSIGFIILGLGSHTISGVNGAIFYLANDIIVKTLLFFVIGSLVYMSGYRNYQYLSGLAKREPFFGVAFVVVIFAIGGVPPFSGFPGKVLIFQGAITNGNYIGLALMIVTSLIAMYSLFRVMFIMYFGDADGEQVQFRPLPIYRKGLLSVLVVVVLAMGIAAPVVLKVTEDATNLNMKEDVFQKNVNTHLKEVNHK	failed
MVTSSSMRRCRGALSLSFWIFLVLRSVLSRPVFGAAAGPAVQSARQCSASRGTGESDPPPFQPTLRLFPPSRRRRSYCRAMTPSRPSPDFPDGGFVQVRGARQHNLKDISVKVPRDALVVFTGVSGSGKSSLAFGTLYAEAQRRYLESVSPYARRLFNQAGVPDVDAIDGLPPAVALQQARGTPTARSSVGSVTTLSNLLRMLYSRAGDYPPGQGIVYAEGFSPNTPEGACPECHGLGRVYTVTEDSMVPDPSLTIRERAVAAWPQAWGGQNQRDILVTLGIDVDVPWRELPEETRHWILFTDEQPVVPVYPGLTPAETQRALKKKMEPSYMGTFSSARRHVLHTFANTESASMKKRVQGYMISEECPLCHGKRLRQEALNVTFAGLDITELSRLPLARVSELLRPYAEEREPGHAERVKNRPEQAIALQRMAADLVKRLDVLLHLGLGYLGLDRSTPTLSPGELQRLRLATQLYSNLFGVVYVLDEPSAGLHPADTEALLSALENLKRGGNSLFVVEHDLDVIRRADWLVDVGPEAGEKGGEILYSGPPEGLKHVPESQTGQYLFADRHTEPHTPREPAGWLELNGVTRNNLDNLDVRFPLGVMTSVTGVSGSGKSTLVSQALVDALAAHFGQPVNPDPEDDEDPADHTAGSARLGGDLAQITRLVRVDQKPIGRTPRSNMATYTGLFDQVRKLFAATPLAKKRGYNAGRFSFNVKGGRCEHCQGEGWVMVELLFLPSVYAPCPVCHGTRYNAETLEVEYRGKNIADVLALTVDEAHDFFADESAIFRALDTLREVGLGYLRLGQPATELSGGEAQRIKLATELQRSGRGGTVYVLDEPTTGLHPADVERLQRQLVKLVDAGNTVIAVEHKMQVVAASDWVLDIGPGAGEDGGRLVAQGTPAEVAQAAGSVTAPYLRAALR	failed
MFITLSERFGLLLAGGFAIMTLAPLDKLGPGRTRSWRATALLVVLFSLFTILGTYNGNIVFQSFANLRAMGAVTAGLFGGPMVGALTGLIAGGHRYFIDVGGFSAVPCGLATFLEGLAAGLFAWRFPSRSLDWGTAMTFAAVGEAVHMCLVLGLARPYAQAVDLVEVIGLPMILLNGVGAAIFVQALRMQMHFRDLRDSSQARQILSIANRTLPHLRAGLSAASARATAEIILDETRVAAVALTSNDMVMAHVGAASDHHRAGHSVCTQATRRVATDGIPLFVTGHDEIGCQLEACPLCSAIIVPLRKGDTILGCLKLYGTKDRPLDQTLFELAKGLADLFATQIELEDIGIKNQLLARAEIRRLQAQINPHFLFNSLNTVASFCRTAPGQARELILDLARYMRRNLDTSREAIHLAEEVEQIRAYLVIEKARFGERIRAVIDIDPETEHCLVPPLLIQPLVENSVRHGILGNEEGGVVRLATSMEDGHVVVVVEDDGAGMPESTRQGILNGTPVTAHGEGIGASNCNQRLVQLYGPAYALSIDSAPGMGTRITFRVPASTDAEVFASAAA	failed
MNIRPSQIKHKQRIASFITHAVVVVMGVLIVSVLFQSYQISSRLMAQEGQRTSVQTSSLIQSLFDFRLAALRIHQDSTAKNASLINALVSRDSSRLDEFFSSVDELELSNAPDLRFISSHDNILWDDGNASFYGIAQQELNKLIRRVAISGNWHLVQTPSEGKSVHILMRRSSLIEAGTGQVVGYLYVGIVLNDNFALLENIRSGSNSENLVLAVDTTPLVSTLKGNEPYSLDYVVHSAKDAMRDSFIVGQTFLEVESVPTYLCVYSIQTNQNVLTLRDNFYFWMAFALISMIGVSIASRWWLQKRIQREIETLMNYTHKLMDLDTKSEFIGSKIYEFDYFGRTLEQSFRRLANKEKQFEDLFNFALSPTMLWNTSGRLIRMNPSAQIQFLREDAQNHFLFEILERQLLPTITNAAQGNNPSDVTTEVDGRVYRWNLSPIMVEGQIISIITQGQDITTIAEAEKQSQAARREAEESARVRAEFLAKMSHELRTPLNGVLGVSQLLKRTPLNDEQREHVAVLCSSGEHLLAVLNDILDFSRLEQGKFRIQKNEFRLKELVCAIDRIYRPLCNEKGLELVVNSNITTAAIVRSDQIRINQILFNLLNNAIKFTHQGSIRVELQLIEGDPLAQLVIQVVDTGIGIREQDLTVIFEPFMQAESTTTREYGGSGLGLTIVHSLVEMLSGQLHVSSEYGIGTRFEIQLPIELVEKPDAPQQLLPAPDPQPLFDKTLRVLLVEDNHTNAFIAQAFCRKYGLDVSWVTDGLQAIEELKIHDYDLVLMDNQLPYLDGVETTRTIKKVLHLPVVVYACTADGLEETRQAFFHAGAEYVLVKPLKEQTLHKALEHFKHHHGQKNAGLN	failed
PGLVDVHTHFMPERVLRKVWDYFDGLGPLTGGLEWPITYRSDEDQRLATIREFGVRAFTAMLYPHKAGMARWLNSWAVDFARRTPDCLHTATLFPEPGVEAYVLEAVEQGARVFKAHVQVGAYDPADELLDPVWGLLAEAGVPVVMHCGSGPAPGKHTGPGPVAQVLARHPRLRLVVAHLGMPEYEDFLDLAERYGEVRLDTTMAFTDFSERLAPFPRGARPRLAGLGDRILLGTDFPNIPYRYVDQLYALERLGLGDDWLRSVCHGNGARLFGL	failed
MFNKISLEIMKRSALTLMPTVLALAVGMAMPAVQAAINSDASVVGTESQWWNTYKVTLTNNGNQPVELRDASIAFDTNLSLSTPSWSAQGISYPSMSFSSNAQGSVFSNRLTLSFDQGSWVKTQLLPGASIDLTLGVSGVLELSLLQSTIALETDGEVEPGEPEISLELASPVQGAEFIEGQTVAIVANVTATNTTVKTVTFLVDGEQIALLEQAPFQASWTAAGEGAHSIKAIVEDASGLLKEQAVRITVKAEEIDPPVEPEVPVAPVIELTNPRNGQSVFLGKVTTLAANATDENNDLTAVEFLVNGESIGRVTQAPYQLAWTPVALGQYTIEAIAYDAAGHQTQTPMVTVNAKEMGTGNLSCDIKQIYREDGTECMGDDHPRRIIGYYTSWRTGKNGLPAYLAGDLPWEKLTHINYAFASINKSDFSMQVDDSATKMTWENVPGAEMDPSLPYQGHFNLLSKFKKQYPDVKTLISVGGWAETGGFYPMTTDLASCSVNMEGIKAFNKSAVDFIRQYDFDGVDIDYEYPSSMKDSGNPVDFEQSNKCRGQLWDNYMVMMTELRKALDKAGEEDGRRYMLTIASPSSAYLLRGMQDFAMQDVLDYVNIMSYDLHGTWNEFVGPQAALFDDGKDAELAKWGVYTTAEYQGIGYLNQAWTHHFFRGAFKPSQINMGIPYYTRGWQGVSGGDKGLWGRAVEPNQSSCPEGTTVCGWGAEGTDNIWHDVDANGNEIKAGVVPMWHAMNLMHAEKLGIDGMPSYGPAWGMDPNNPKHLIEGKYERVWSQELQTAWLWNDTKKVFLSIEDKDSLKPKLDYIVDNGLGGMMIWEMAGDYSYDAVKREYVIGSDMTSYAHEVFAAAKPMDIRHNDLPQPDSVIDVTVSTTEWPEGDSNYPINPKLVFTNHSNVAIPGGSTIEFLMPTSSGDIVKDWSGAGLKVIESGHTGSNFSVNGEKKLFHKVAVTLRSTETIPAGGEYSVDMVYYTPVSGVANGVRFIVGNETVGLKKDFPTLPAFEGATDGGNGNEGGAGQSCADAGINPNGLKVYPEFPRGDHAAGGDQLIHNGSVWQANWWTNSTPSSADASWKAVCKI	failed
MNTRPFYFGLIFIAIIAILANYLGNTDFSHHYHISALIIAILLGMAIGNTIYPQFSTQVEKGVLFAKGALLRTGIVLYGFRLTFGDIADVGLNAVVTDAIMLISTFFFTALLGIRYLKMDKQLVYLTGAGCSICGAAAVMAAEPVTKAESHKVSVAIAVVVIFGTLAIFTYPLFYTWSQHLINAHQFGIYVGSSVHEVAQVYAIGENIDPIVANTAVISKMIRVMMLAPFLLMLSWLLTRSNGVSENTSHKITIPWFAVLFIGVAIFNSFDLLPKELVKLFVEIDSFLLISSMAALGLTTQASAIKKAGLKPFVLGILTYLWLVVGGFLVNYGISKLI	failed
MPFLLTLLAFLRVLRRLLKDEKFRALLYITAFTLAIGTFFYHSVEGWDWLDSLYFSVITLTTVGYGDFTPKTNIGKFFTIIYIFIGLGILVAFVTPIGEYIVDRRLDRIQEREQKKEIPENEFDFSGVIGKLRGKK	failed
FLNSVLNFSLFLLNAHDSYLEVMRNRDTLSRMISSLEEVLDVSRRAELIEKTLHYLKDMFPGIVLSSVSLLEDGKIKTFFLKNGQIEVVNLKRGIVVKAFETKRDLFVNDVRDFPEFYDVTNGRTRSAAAIFFEYENTPLVLEIEKDSEITEYELSSLKMMARILAIFFSR	failed
MIRAVFFDFVGTLLSVEGEAKTHLKIMEEVLGDYPLNPKTLLDEYEKLTREAFSNYAGKPYRPIRDIEEEVMRKLAEKYGFKYPENFWEIHLRMHQRYGELYPEVVEVLKSLKGKYHVGMITDSDTEYLMAHLDALGIKDLFDSITTSEEAGFFKPHPRIFELALKKAGVKGEEAVYVGDNPVKDCGGSKNLGMTSILLDRKGEKREFWDKCDFIVSDLREVIKIVDELNGQ	not failed
